Laboratory results: US20180031580

Biological target: insulin-like growth factor type 1 (IGF-1)

B1: dipeptidyl-peptidase 4 (DPP-4) (protein)
chain: NKGTDDATADSRKTYTLTDYLKNTYRLKLYSLRWISDHEYLYKQENNILVFNAEYGNSSVFLENSTFDEFGHSINDYSISPDGQFILLEYNYVKQWRHSYTASYDIYDLNKRQLITEERIPNNTQWVTWSPVGHKLAYVWNNDIYVKIEPNLPSYRITWTGKEDIIYNGITDWVYEEEVFSAYSALWWSPNGTFLAYAQFNDTEVPLIEYSFYSDESLQYPKTVRVPYPKAGAVNPTVKFFVVNTDSLSSVTNATSIQITAPASMLIGDHYLCDVTWATQERISLQWLRRIQNYSVMDICDYDESSGRWNCLVARQHIEMSTTGWVGRFRPSEPHFTLDGNSFYKIISNEEGYRHICYFQIDKKDCTFITKGTWEVIGIEALTSDYLYYISNEYKGMPGGRNLYKIQLSDYTKVTCLSCELNPERCQYYSVSFSKEAKYYQLRCSGPGLPLYTLHSSVNDKGLRVLEDNSALDKMLQNVQMPSKKLDFIILNETKFWYQMILPPHFDKSKKYPLLLDVYAGPCSQKADTVFRLNWATYLASTENIIVASFDGRGSGYQGDKIMHAINRRLGTFEVEDQIEAARQFSKMGFVDNKRIAIWGWSYGGYVTSMVLGSGSGVFKCGIAVAPVSRWEYYDSVYTERYMGLPTPEDNLDHYRNSTVMSRAENFKQVEYLLIHGTADDNVHFQQSAQISKALVDVGVDFQAMWYTDEDHGIASSTAHQHIYTHMSHFIKQCFSLP
phosphorylation level of ERK or Akt (western blot): when the eNOS-deficient mice treated with IGF-1 was treated with DPP-4, the phosphorylation level of ERK or Akt which is the protein involved in intracellular signaling was reduced
